Source: the Human Domainome abundance scans (Beltran et al. 2025)

B1: Zinc finger homeobox protein 4, residues 2562 to 2617; numbered along this chain, Q86UP3 (parent)
chain: RLRTTITPEQLEILYEKYLLDSNPTRKMLDHIAREVGLKKRVVQVWFQNTRARERK

Variants of: B1
Assay: abundance fitness (aPCA) (normalised: wild type 0, dead -1); higher = more abundant; growth selection in yeast, the domain comes from the species named
Conditions: Homo sapiens

Abundance fitness of substitutions, site by site:
K39: H -0.072 | D 0.11 | C 0.142 | G 0.117 | A 0.234 | Y 0.406 | M -0.405 | F -0.862 | Q 0.032 | L 0.072 | R -0.126 | S 0.278 | I -0.784 | P 0.196 | W -0.779 | T 0.284 | N -0.168 | V -0.01
W46: D -0.536 | E -0.549 | C -0.663
M28: E -0.003 | D 0.242 | C -0.067 | L -0.102 | K -0.582 | R -0.297 | W -0.577 | Q -0.067 | S -0.152 | V -0.119 | H -0.305 | Y -0.406 | P -1.06 | F -0.591 | I -0.101 | N -0.409 | G -0.108 | T -0.003
Q44: L -0.128 | Y 0.202 | V -0.156 | W -0.045 | E 0.298 | R -0.191 | H -0.101 | I -0.28 | T -0.053 | M -0.132 | S -0.248 | C 0.246 | A -0.011 | F -0.416 | K -0.035 | N -0.131 | D 0.322 | G -0.031
V43: C -0.505 | P -0.862 | R -0.974 | S -0.723 | K -0.965 | D -0.778 | A -0.462 | T -0.553 | L -0.306 | N -0.829 | G -0.89 | W -0.78 | I -0.147 | F -0.861 | E -0.925
V36: W -0.638 | S 0.019 | E -0.671 | L -0.121 | M -0.134 | D -0.27 | H -0.418 | K -0.726 | F -0.623 | A -0.103 | Y -0.586 | C -0.223 | I -0.398 | P -0.649 | R -1.03 | G -0.812 | N -0.415
H31: C 0.052 | A 0.042 | M -0.169 | S 0.233 | L -0.112 | G -0.004 | I 0.205 | N -0.335 | D 0.05 | Y -0.201 | E 0.426 | F -0.266 | W -0.119 | R -0.129 | Q 0.176 | K 0.146 | T 0.206
E35: M -0.279 | V -0.306 | C -0.393 | T -0.254 | N -0.358 | D -0.278 | L -0.25 | S -0.158 | Y -0.493 | I -0.163 | R -0.654 | F -0.564 | A -0.235 | W -0.597 | Q -0.283 | H -0.302 | G -0.258
L38: A -0.508 | W -0.884 | R -0.818 | C -0.301 | E -0.488 | Q -0.755 | G -0.915 | I -0.025 | D -0.718 | S -0.846 | M -0.132 | P -0.787 | K -0.254 | T -0.933
V42: E 0.273 | T -0.187 | C -0.179 | H -0.079 | D 0.23 | Y -0.598 | Q -0.038 | A -0.197 | G -0.533 | M -0.103 | L -0.126 | S -0.348 | R -0.413 | K -0.302
A33: S -0.158 | E -0.352 | P -0.563 | C -0.003 | G -0.344 | H -0.86 | Q -0.669 | R -0.541 | T -0.331 | L -0.732 | D -0.526 | W -0.696
V45: P -0.754 | G -0.198 | K -0.249 | A -0.243 | Y -0.036 | Q -0.568 | N -0.384 | H -0.262 | D 0.192 | F -0.738 | I -0.057 | T -0.045 | C -0.352 | S -0.309 | R -0.402 | W -0.439 | L -0.111 | E 0.535
R41: P 0.246 | S 0.306 | N 0.248 | G 0.264 | Y 0.037 | L 0.115 | F -0.044 | V 0.013 | A 0.257 | I -0.038 | H 0.163 | Q 0.476 | W -0.102 | E 0.517 | C 0.068 | D 0.001 | T 0.213
K27: W -0.302 | S 0.074 | C -0.096 | R -0.475 | Q 0.082 | I -0.245 | M -0.206 | D 0.478 | Y -0.142 | H 0.083 | V 0.099 | T -0.147 | P 0.128 | L -0.019 | G 0.074 | E 0.147 | N -0.112 | F -0.265 | A 0.169
T25: S -0.056 | R -0.72
R26: P -0.236 | T 0.52 | H -0.017 | G -0.143 | Y 0.867 | D 0.285 | Q 0.369 | V 0.223 | W 0.237 | S 0.142 | L 0.24 | E 0.171 | N 1.41 | K 0.1 | M -0.092 | I 0.917
K40: D -0.097 | T 0.199 | G 0.103 | Y 0.518 | M 0.243 | E 0.361 | S 0.218 | F 0.15 | H -0.218 | R 0.057 | A 0.163 | V 0.264 | W -0.002 | P 0.162 | I 0.143 | L 0.264 | C 0.108
I32: M -0.366 | S -1.27 | F -0.377 | G -0.945 | K -0.796 | A -0.786 | C -0.518 | Q -1.24 | E -0.998 | Y -0.208 | T -0.405 | V -0.204 | R -1.08 | W -0.23 | L -0.15
D30: I -0.056 | S -0.062 | G -0.052 | E -0.088 | W -0.173 | Y 0.003 | P -0.579 | H -0.269 | R -0.144 | M -0.352 | L -0.296 | F -0.372 | A -0.108 | Q -0.102 | T 0.002 | V -0.292 | C -0.431
G37: M -0.465 | S -0.359 | P -0.812 | L -0.71 | W -1.1 | Q -0.051 | H -0.471 | Y -0.962 | C -0.006 | K -0.169 | A -0.258 | V -0.643 | N 0.107 | D -0.065 | R -0.369 | I -0.828
R34: S 0.17 | Q 0.107 | F -0.101 | M -0.053 | C -0.223 | H -0.162 | Y 0.245 | D -0.536 | L -0.011 | N 0.161 | W -0.139 | E 0.244 | G 0.123 | K 0.004 | A 0.195 | I -0.43 | P -0.638 | T -0.02
L29: D -0.721 | P -0.752 | E 0.155 | Y -0.239 | Q -0.124 | W -0.004 | F -0.049 | M -0.429 | G -0.94 | S -0.498 | K -0.621 | V -0.024 | H -0.95 | I -0.033 | R -0.346 | T -0.228
